B1: CPEB3 Ribozyme (parent)
chain: GGGGGCCACAGCAGAAGCGUUCACGUCGCGGCCCCUGUCAGAUUCUGGUGAAUCUGCGAAUUCUGCUGU

Variants of B1 are the subject of this series. Description: self-cleavage, relative activity (ratio to wild type); higher = more cleavage; co-transcriptional.
As to GGGGGCCACAGCAGAAGCGUUGACGUCGCGGCCCCUGUCAGAUUCUGGUGAAUCUGUGAAUUCUGCUGU, the self-cleavage amounted to 0.148. For GGGGGCCACAGCAGAAGCGUUGACGUCGCGGCCCCUGUCAGAUUCUGGUGAAUCUGAGAAUUCUGCUGU, the self-cleavage amounted to 0.221. The figure for GGGGGCCACAGCAGAAGCGUUGACGUCGCGGCCCCUGUCAGAUGCUGGUGAAUCUGCGAAUUCUGCUGU is 0.16.

GGGGGCCACAGCAGAAGCGUUGAGGUCGCGGCCCCUGUCAGAUUCUGGUGAAUCUGCGAAUUCUGCUGU: the self-cleavage worked out at 0.0697. GGGGGCCACAGCAGAAGCGUUGAUGUCGCGGCCCCUGUCAGAUUCUGGUGAAUCUGCGAAUUCUGCUGU: the self-cleavage turned out to be 0.182. Consider GGGGGCCACAGCAGAAGCGUUGACGUCGCGGCCCCUGUCAGAUUCUGGUGAAUCUGCGAGUUCUGCUGU, for which the self-cleavage came to 0.265.

For the variant GGGGGCCACAGCAGAAGCGUUGACGUCGCGGCCCCUGUCAGAUUCGGGUGAAUCUGCGAAUUCUGCUGU, the self-cleavage was found to be 0.178. Regarding GGGGGCCACAGCAGAAGCGUUGACGACGCGGCCCCUGUCAGAUUCUGGUGAAUCUGCGAAUUCUGCUGU, the self-cleavage amounted to 0.144. Turning to GGGGGCCACAGCAGAAGCGUUGACGCCGCGGCCCCUGUCAGAUUCUGGUGAAUCUGCGAAUUCUGCUGU, the self-cleavage was determined as 0.209. With GGGGGCCACAGCAGAAGCGUUGACGUCGCGGCCCCUGUCAGAUUCUGGUGAAUCUGCGAAAUCUGCUGU the figure was 0.181; with GGGGGCCACAGCAGAAGCGUUGACGUCACGGCCCCUGUCAGAUUCUGGUGAAUCUGCGAAUUCUGCUGU, 0.16; with GGGGGCCACAGCAGAAGCGUUGACGUCGCGCCCCCUGUCAGAUUCUGGUGAAUCUGCGAAUUCUGCUGU, 0.0776. In the case of GGGGGCCACAGCAGAAGCGUUGACGUCGCGACCCCUGUCAGAUUCUGGUGAAUCUGCGAAUUCUGCUGU, the self-cleavage turned out to be 0.137. As for GGGGGCCACAGCAGAAGCGUUGACGUCGCGGCCCCUGUCAGAUUCUGCUGAAUCUGCGAAUUCUGCUGU, the self-cleavage came out at 0.212.

Take GGGGGCCACAGCAGAAGCGUUUACGUCGCGGCCCCUGUCUGAUUCUGGUGAAUCUGCGAAUUCUGCUGU: the self-cleavage was determined as 0.184. The figure for GGGGGCCACAGCAGAAGCGUUUACGUCGCGGCCCCUGUCCGAUUCUGGUGAAUCUGCGAAUUCUGCUGU is 0.165. Regarding GGGGGCCACAGCAGAAGCGUUUACGUCGCGGCCCCUGUCGGAUUCUGGUGAAUCUGCGAAUUCUGCUGU, the self-cleavage turned out to be 0.266. Turning to GGGGGCCACAGCAGAAGCGUUGACGUCGCGGCGCCUGUCAGAUUCUGGUGAAUCUGCGAAUUCUGCUGU, the self-cleavage was determined as 0.216.

For GGGGGCCACAGCAGAAGCGUUGACGUCGCGGCCCCUGUCAGAUUCUGGUGAAUCUGCGAAUUCUGUUGU, the self-cleavage came out at 0.182. Turning to GGGGGCCACAGCAGAAGCGUUGACGUCGCGGCCCCUAUCAGAUUCUGGUGAAUCUGCGAAUUCUGCUGU, the self-cleavage worked out at 0.174. GGGGGCCACAGCAGAAGCGUUGACGUCGCGGCCCCUCUCAGAUUCUGGUGAAUCUGCGAAUUCUGCUGU: the self-cleavage came to 0.956. The figure for GGGGGCCACAGCAGAAGCGUUGACGUCGCGGCCCCUGUCAGAUUCUGGUGAAUCUGCGAAUUCUGCUAU is 0.267; for GGGGGCCACAGCAGAAGCGUUGACGUCGCGGCCCCUGUCAGAUUCUGGUGAAUCUGCGAAUUCUGCUCU it is 0.156; for GGGGGCCACAGCAGAAGCGUUGACGUCGCGGCCCCUGUCAGAUUCUGGUGAAUCUACGAAUUCUGCUGU it is 0.241. Turning to GGGGGCCACAGCAGAAGCGUUGACGUCGCGGCCCCUGUCAGAUUCUGGUGAAUCUCCGAAUUCUGCUGU, the self-cleavage turned out to be 0.158.

As for GGGGGCCACAGCAGAAGCGUUGACGUCGAGGCCCCUGUCAGAUUCUGGUGAAUCUGCGAAUUCUGCUGU, the self-cleavage was 0.258. The figure for GGGGGCCACAGCAGAAGCGUUGACGUCGCGGCCCCUGUCAGAUUCUGGAGAAUCUGCGAAUUCUGCUGU is 0.172; for GGGGGCCACAGCAGAAGCGUUUACGUCGCGGCCCCUGUCAGGUUCUGGUGAAUCUGCGAAUUCUGCUGU it is 0.204; for GGGGGCCACAGCAGAAGCGUUGACGUCGCGGCCUCUGUCAGAUUCUGGUGAAUCUGCGAAUUCUGCUGU it is 0.203.

Take GGGGGCCACAGCAGAAGCGUUGACGUGGCGGCCCCUGUCAGAUUCUGGUGAAUCUGCGAAUUCUGCUGU: the self-cleavage was 0.16.

Regarding GGGGGCCACAGCAGAAGCGUUGACGUCGCGGCCCCUGUCAGAUUUUGGUGAAUCUGCGAAUUCUGCUGU, the self-cleavage is 0.158. Turning to GGGGGCCACAGCAGAAGCGUUGACGUCGCGGCCCCUGUCAGAUUCUGGUGAAUCUGCGAAUUCGGCUGU, the self-cleavage is 0.157. With GGGGGCCACAGCAGAAGCGUUGACGUCGCGGCCCCUGUCAGAUUCUGGUGAAUCUGCAAAUUCUGCUGU the figure was 0.103.

As to GGGGGCCACAGCAGAAGCGUUGACGUCGCGGCCCCUGUCAGAUUCUGGUAAAUCUGCGAAUUCUGCUGU, the self-cleavage turned out to be 0.189.

For the variant GGGGGCCACAGCAGAAGCGUUGACGUCGCGGCCCCUGUCAGAUUCUGGUGAAACUGCGAAUUCUGCUGU, the self-cleavage came out at 0.136.

For GGGGGCCACAGCAGAAGCGUUUCCGUCGCGGCCCCUGUCAGAUUCUGGUGAAUCUGCGAAUUCUGCUGU, the self-cleavage stood at 0.276. For the variant GGGGGCCACAGCAGAAGCGUUGACGUCGCGGUCCCUGUCAGAUUCUGGUGAAUCUGCGAAUUCUGCUGU, the self-cleavage is 0.182. The figure for GGGGGCCACAGCAGAAGCGUUGACGUCGCGGCCCCUGUCAGAUUCUGGUGAAUCUGCGAAUUCUGCUGG is 0.349; for GGGGGCCACAGCAGAAGCGUUGACGUCGCGGCCCCUGUCAGAUUCUGGUGAAUCUGCGAAUUCUGCUGA it is 0.242.

These data come from the RNAGym collection of RNA variant scans (doi:10.7554/elife.80360).
